Reference: patent US20220017622A1 (Pfizer, published 2022)
Changes are numbered by the printed parent chain.

T1: human B7-H4 on cells (human, UniProt Q7Z7D3 25-282)
T1 sequence (looked up): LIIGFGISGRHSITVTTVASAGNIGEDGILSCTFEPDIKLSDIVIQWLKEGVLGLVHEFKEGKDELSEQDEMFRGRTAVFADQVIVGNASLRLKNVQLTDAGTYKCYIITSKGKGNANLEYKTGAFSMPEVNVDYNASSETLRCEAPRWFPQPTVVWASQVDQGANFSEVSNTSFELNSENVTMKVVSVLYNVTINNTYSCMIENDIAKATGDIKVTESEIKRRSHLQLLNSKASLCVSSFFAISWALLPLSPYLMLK

B1: B7-H4xCD3 bispecific antibody 0998 (bispecific antibody, IgG2)
heavy 1: EVQLLESGGGLVQPGGSLRLSCAASGFTFSSYAMSWVRQAPGKGLEWVSAISGGGGSTQYADSVKGRFTISRDNSKNTLYLQMNSLRAEDTAVYYCARDIQWFGESTLFDYWGQGTLVTVSSASTKGPSVFPLAPCSRSTSESTAALGCLVKDYFPEPVTVSWNSGALTSGVHTFPAVLQSSGLYSLSSVVTVPSSNFGTQTYTCNVDHKPSNTKVDKTVERKCEVECPECPAPPVAGPSVFLFPPKPKDTLMISRTPEVTCVVVAVSHEDPEVQFNWYVDGVEVHNAKTKPREEQFNSTFRVVSVLTVVHQDWLNGKEYKCKVSNKGLPSSIEKTISKTKGQPREPQVYTLPPSREEMTKNQVSLTCEVKGFYPSDIAVEWESNGQPENNYKTTPPMLDSDGSFFLYSKLTVDKSRWQQGNVFSCSVMHEALHNHYTQKSLSLSPG
light 1: DIQLTQSPSTLSASVGDRVTITCRASQSIRSWLAWFQQKPGKAPKLLIYKASSLEGGVPSRFSGSGSGTEFTLTISSLQPDDFATYYCQQYNSYSRTFGQGTKVEIKRTVAAPSVFIFPPSDEQLKSGTASVVCLLNNFYPREAKVQWKVDNALQSGNSQESVTEQDSKDSTYSLSSTLTLSKADYEKHKVYACEVTHQGLSSPVTKSFNRGEC
heavy 2: EVQLVESGGGLVQPGGSLRLSCAASGFTFSDYYMTWVRQAPGKGLEWVAFIRNQARGYTSDHNPSVKGRFTISRDNAKNSLYLQMNSLRAEDTAVYYCARDRPSYYVLDYWGQGTTVTVSSASTKGPSVFPLAPCSRSTSESTAALGCLVKDYFPEPVTVSWNSGALTSGVHTFPAVLQSSGLYSLSSVVTVPSSNFGTQTYTCNVDHKPSNTKVDKTVERKCRVRCPRCPAPPVAGPSVFLFPPKPKDTLMISRTPEVTCVVVAVSHEDPEVQFNWYVDGVEVHNAKTKPREEQFNSTFRVVSVLTVVHQDWLNGKEYKCKVSNKGLPSSIEKTISKTKGQPREPQVYTLPPSREEMTKNQVSLTCLVKGFYPSDIAVEWESNGQPENNYKTTPPMLDSDGSFFLYSRLTVDKSRWQQGNVFSCSVMHEALHNHYTQKSLSLSPGK
light 2: DIQMTQSPSSLSASVGDRVTITCTSSQSLFNVRSQKNYLAWYQQKPGKAPKLLIYWASTRESGVPSRFSGSGSGTDFTLTISSLQPEDFATYYCKQSYDLFTFGGGTKVEIKRTVAAPSVFIFPPSDEQLKSGTASVVCLLNNFYPREAKVQWKVDNALQSGNSQESVTEQDSKDSTYSLSSTLTLSKADYEKHKVYACEVTHQGLSSPVTKSFNRGEC
B2: B7-H4xCD3 bispecific antibody 1001 (bispecific antibody, IgG2)
heavy 1: B1 heavy 1 with Q59Y, E105R
light 1: B1 light 1
heavy 2: B1 heavy 2
light 2: B1 light 2
B3: B7-H4xCD3 bispecific antibody 1000 (bispecific antibody, IgG2)
heavy 1: B1 heavy 1 with Q59Y, F103H
light 1: B1 light 1
heavy 2: B1 heavy 2
light 2: B1 light 2
B4: B7-H4xCD3 bispecific antibody 1003 (bispecific antibody, IgG2)
heavy 1: B1 heavy 1 with Q59Y
light 1: B1 light 1 with L4M, T10S, I29T, W32H, F36Y, E70D, D81E, N92G
heavy 2: B1 heavy 2
light 2: B1 light 2

These binders were tested against T1, human B7-H4 on cells (assay: cell-based or functional assay).
In the case of B1, the “T cell mediated tumor cell killing EC50, HCC1954-Luc” value is reported as 410 nM.
In the case of B2, the “T cell mediated tumor cell killing EC50, HCC1954-Luc” value is reported as 10 nM.
For B3, the “T cell mediated tumor cell killing EC50, HCC1954-Luc” value was 100 nM.
In the case of B4, the “T cell mediated tumor cell killing EC50, HCC1954-Luc” value is reported as 100 nM.
